Drawing on patent US20230140293A1, this text covers IC50 (µg/ml) in TZM-bl, ID50/IC50 in TZM-bl and log AUC for five substances.

The target of assay [1] is HIV-1 Env 426c.TM (N276D.N460D.N463D), Env-pseudotyped virus produced in 293T cells (HIV-1 clade C strain 426c). Description: cell-based or functional assay.
Assay [2] has as its target CH0505.w4.3 Env, Env-pseudotyped virus produced in 293T cells (HIV-1). Description: cell-based or functional assay.
Assay [3] has as its target CH0505TF.G458Y Env, pseudotyped virus produced in 293S GnTI- cells (HIV-1). Put plainly: cell-based or functional assay.
The target of assay [4] is CH0505TF.gly3.276 Env, Env-pseudotyped virus produced in 293T cells (HIV-1). Put plainly: cell-based or functional assay.
Assay [5] addresses HIV-1 426c.DM (N460D/N463D) Env on Env-pseudotyped virus produced in 293s/GnTI-/- cells (Man5-enrichment) (HIV-1). Put plainly: cell-based or functional assay.
Assay [6] deals with CH0505TF.gly4 Env, pseudotyped virus produced in 293S GnTI- cells (HIV-1). Put plainly: cell-based or functional assay.
Assay [7] deals with HIV-1 426c.TM (N276D/N460D/N463D) Env on Env-pseudotyped virus produced in 293s/GnTI-/- cells (Man5-enrichment) (HIV-1). Description: cell-based or functional assay.
In assay [8] the target is HIV-1 426c.SM (N276D) Env on Env-pseudotyped virus produced in 293s/GnTI-/- cells (Man5-enrichment) (HIV-1). Put plainly: cell-based or functional assay.
Assay [9] has as its target HIV-1 Env 426c.TM (N276D.N460D.N463D), Env-pseudotyped virus produced in 293S GnTI- cells (Man5-enriched) (HIV-1 clade C strain 426c). Put plainly: cell-based or functional assay.
Assay [10] addresses CH0505TF.gly3.197 Env, pseudotyped virus produced in 293S GnTI- cells (HIV-1). Put plainly: cell-based or functional assay.
In assay [11] the target is CH0505TF.gly3.276 Env, pseudotyped virus produced in 293S GnTI- cells (HIV-1). Put plainly: cell-based or functional assay.
Assay [12] has as its target HIV-1 Env 426c.SM (N276D), Env-pseudotyped virus produced in 293T cells (HIV-1 clade C strain 426c). Description: cell-based or functional assay.
In assay [13] the target is HIV-1 Env 426c.SM (N276D), Env-pseudotyped virus produced in 293S GnTI- cells (Man5-enriched) (HIV-1 clade C strain 426c). Description: cell-based or functional assay.
Assay [14] has as its target HIV-1 426c.DM (N460D/N463D) Env on Env-pseudotyped virus produced in 293T cells (HIV-1). Description: cell-based or functional assay.
Assay [15] addresses CH0505TF.G458Y Env, Env-pseudotyped virus produced in 293T cells (HIV-1). Description: cell-based or functional assay.
The target of assay [16] is HIV-1 Env 426c.DM (N460D.N463D), Env-pseudotyped virus produced in 293T cells (HIV-1 clade C strain 426c). Put plainly: cell-based or functional assay.
Assay [17] deals with HIV-1 clade C strain 426c Env on Env-pseudotyped virus produced in 293T cells (HIV-1). Description: cell-based or functional assay.
Assay [18] deals with HIV-1 Env 426c.TM4 (S278R.G471S.N460D.N463D), Env-pseudotyped virus produced in 293S GnTI- cells (Man5-enriched) (HIV-1 clade C strain 426c). Put plainly: cell-based or functional assay.
The target of assay [19] is HIV-1 426c.SM (N276D) Env on Env-pseudotyped virus produced in 293T cells (HIV-1). Description: cell-based or functional assay.
The target in assay [20] is CH0505TF.gly3.197 Env, Env-pseudotyped virus produced in 293T cells (HIV-1). Put plainly: cell-based or functional assay.
The target of assay [21] is HIV-1 426c.TM (N276D/N460D/N463D) Env on Env-pseudotyped virus produced in 293T cells (HIV-1). Put plainly: cell-based or functional assay.
Assay [22] deals with HIV-1 Env 426c.TM4 (S278R.G471S.N460D.N463D), Env-pseudotyped virus produced in 293T cells (HIV-1 clade C strain 426c). Description: cell-based or functional assay.
For assay [23], the target named is HIV-1 Env 426c, Env-pseudotyped virus produced in 293T cells (HIV-1 clade C strain 426c). Put plainly: cell-based or functional assay.
Assay [24] concerns the target CH0505TF.gly4 Env, Env-pseudotyped virus produced in 293T cells (HIV-1). Put plainly: cell-based or functional assay.
Assay [25] concerns the target HIV-1 clade C strain 426c Env on Env-pseudotyped virus produced in 293s/GnTI-/- cells (Man5-enrichment) (HIV-1). Put plainly: cell-based or functional assay.
Assay [26] deals with HIV-1 Env 426c, Env-pseudotyped virus produced in 293S GnTI- cells (Man5-enriched) (HIV-1 clade C strain 426c). Put plainly: cell-based or functional assay.
Assay [27] deals with CH0505TF Env, pseudotyped virus produced in 293S GnTI- cells (HIV-1). Put plainly: cell-based or functional assay.
Assay [28] addresses CH0505TF.gly3.461 Env, Env-pseudotyped virus produced in 293T cells (HIV-1). Put plainly: cell-based or functional assay.
The target of assay [29] is HIV-1 Env 426c.DM (N460D.N463D), Env-pseudotyped virus produced in 293S GnTI- cells (Man5-enriched) (HIV-1 clade C strain 426c). Put plainly: cell-based or functional assay.
Assay [30] has as its target CH0505TF.gly3.461 Env, pseudotyped virus produced in 293S GnTI- cells (HIV-1). Description: cell-based or functional assay.
The target of assay [31] is CH0505TF Env, Env-pseudotyped virus produced in 293T cells (HIV-1). Put plainly: cell-based or functional assay.
Assay [32] addresses HIV-1 CH0505TF.G458Y Env on Env-pseudotyped virus produced in 293T cells (HIV-1). Put plainly: cell-based or functional assay.
The target in assay [33] is HIV-1 CH0505TF.N280D Env on Env-pseudotyped virus produced in 293T cells (HIV-1). Put plainly: cell-based or functional assay.
For assay [34], the target named is HIV-1 CH0505TF (CH505 transmitted/founder) Env on Env-pseudotyped virus produced in 293T cells (HIV-1). Description: cell-based or functional assay.
Assay [35] has as its target HIV-1 CH0505TF.S365P Env on Env-pseudotyped virus produced in 293T cells (HIV-1). Put plainly: cell-based or functional assay.
Assay [36] concerns the target CH505 w020.14 gp120 (HIV-1). Put plainly: ELISA, gp120 on plate. Background: ELISA stands for enzyme-linked immunosorbent assay.
Assay [37] deals with CH505 transmitted/founder (TF) gp120 (HIV-1). Description: ELISA, gp120 on plate.
Assay [38] concerns the target CH505 w078.15 gp120 (HIV-1). Description: ELISA, gp120 on plate.
In assay [39] the target is CH505 w053.16 gp120 (HIV-1). Description: ELISA, gp120 on plate.
In assay [40] the target is CH505 M11 gp120 (HIV-1). Description: ELISA, gp120 on plate.
Assay [41] addresses CH505 w030.28 gp120 (HIV-1). Put plainly: ELISA, gp120 on plate.
Assay [42] has as its target CH505 M5 gp120 (HIV-1). Put plainly: ELISA, gp120 on plate.

A value given as a limit tells only on which side of the number the result lay.

With 3BNC117 (antibody), the IC50 (µg/ml) in TZM-bl in assay [1] stood at 0.01 µg/mL; in assay [2] it was 0.02 µg/mL; in assay [3], 18 µg/mL; in assay [4], 0.001 µg/mL; in assay [6], 0.001 µg/mL; in assay [9], 0.003 µg/mL. Moreover, the IC50 (µg/ml) in TZM-bl was 0.004 µg/mL in assay [10]; 0.001 µg/mL in assay [11]; 0.24 µg/mL in [12]; 0.01 µg/mL in [13]; over 25 µg/mL in [15]; 0.13 µg/mL in [16]. Also, the IC50 (µg/ml) in TZM-bl in [18] was under 0.001 µg/mL; in [20] it was 0.005 µg/mL; in assay [22] it was 0.003 µg/mL; in assay [23] it was 0.2 µg/mL; in assay [24] it was 0.001 µg/mL; in assay [26], 0.02 µg/mL. For the same substance, the IC50 (µg/ml) in TZM-bl in assay [27] was 0.01 µg/mL; in assay [28] it was 0.002 µg/mL; in assay [29] it was 0.006 µg/mL; in assay [30], 0.002 µg/mL; in [31], 0.03 µg/mL; in assay [32] it was over 25 µg/mL. Besides, the IC50 (µg/ml) in TZM-bl was over 25 µg/mL in [33], 0.03 µg/mL in assay [34] and 0.01 µg/mL in [35]. Moreover, the ID50/IC50 in TZM-bl in assay [5] turned out to be 0.006 µg/mL; in assay [7] it was 0.003 µg/mL; in [8], 0.01 µg/mL; in assay [14], 0.13 µg/mL; in [17] it was 0.2 µg/mL; in assay [19] it was 0.24 µg/mL. Moreover, the results for the ID50/IC50 in TZM-bl in assay [21] and in assay [25] were 0.01 µg/mL and 0.02 µg/mL, respectively.
Consider “CH103 lineage intermediate ancestor IA3 (antibody)”, for which the log AUC in assay [36] was determined as 9.5 log AUC; in [37], 11 log AUC; in [38] it was 3 log AUC; in [39], 1.1 log AUC; in assay [40] it was 11.8 log AUC; in assay [41] it was 7.7 log AUC. This substance also gave a log AUC in [42] of 6.8 log AUC.
“CH103 lineage intermediate ancestor IA4 (antibody)”: the log AUC in assay [36] was 8.6 log AUC; in [37], 10.1 log AUC; in assay [38], 1.3 log AUC; in [39], 0.2 log AUC; in assay [40], 10.5 log AUC; in assay [41] it was 6.5 log AUC. In assay [42], this substance displayed a log AUC of 3.8 log AUC.
Turning to IgG1b12 (antibody), the IC50 (µg/ml) in TZM-bl in assay [1] is over 25 µg/mL; in [2] it was under 0.02 µg/mL; in assay [3], 0.22 µg/mL; in assay [4] it was 0.007 µg/mL; in assay [6] it was 0.001 µg/mL; in assay [9], over 25 µg/mL. For the same substance, the IC50 (µg/ml) in TZM-bl in assay [10] was 0.26 µg/mL; in assay [11], 0.01 µg/mL; in assay [12], over 25 µg/mL; in assay [13], over 25 µg/mL; in assay [15], 0.1 µg/mL; in assay [16], over 25 µg/mL. Besides, the IC50 (µg/ml) in TZM-bl in [18] was over 25 µg/mL; in assay [20], 0.68 µg/mL; in assay [22] it was over 25 µg/mL; in assay [23], over 25 µg/mL; in assay [24], 0.004 µg/mL; in [26], over 25 µg/mL. The IC50 (µg/ml) in TZM-bl in assay [27] was 0.61 µg/mL; in assay [28], 0.011 µg/mL; in assay [29], over 25 µg/mL; in assay [30] it was 0.02 µg/mL; in [31], 0.98 µg/mL. The ID50/IC50 in TZM-bl in [5], in assay [7], in [8], in [14], in assay [17] and in assay [19] was over 25 µg/mL in each case. The ID50/IC50 in TZM-bl in assay [21] and in [25] was over 25 µg/mL in each case.
With N6 (antibody), the IC50 (µg/ml) in TZM-bl worked out at 0.01 µg/mL in assay [2]; 0.008 µg/mL in [3]; 0.003 µg/mL in assay [4]; 0.001 µg/mL in assay [6]; 0.003 µg/mL in assay [10]; 0.004 µg/mL in assay [11]. In addition, the IC50 (µg/ml) in TZM-bl in [15] amounted to 0.02 µg/mL; in assay [20], 0.01 µg/mL; in [24], 0.001 µg/mL; in assay [27], 0.016 µg/mL; in assay [28], 0.004 µg/mL; in assay [30], 0.002 µg/mL. For the same substance, the IC50 (µg/ml) in TZM-bl is 0.06 µg/mL in assay [31]; 0.02 µg/mL in assay [32]; over 17 µg/mL in assay [33]; 0.06 µg/mL in [34]; 0.02 µg/mL in assay [35].
